The values below come from US20210101937A1 (Bicycle, published 2021).

For assay [1], the target named is T1, CD137 (UniProt Q07011 24-255, limits assumed). Nature of the assay: cell-based or functional assay.
The target of assay [2] is T1, CD137. Put plainly: cell-based or functional assay. This is another data set of the same source.

T1 sequence (Q07011 24-255 limits assumed): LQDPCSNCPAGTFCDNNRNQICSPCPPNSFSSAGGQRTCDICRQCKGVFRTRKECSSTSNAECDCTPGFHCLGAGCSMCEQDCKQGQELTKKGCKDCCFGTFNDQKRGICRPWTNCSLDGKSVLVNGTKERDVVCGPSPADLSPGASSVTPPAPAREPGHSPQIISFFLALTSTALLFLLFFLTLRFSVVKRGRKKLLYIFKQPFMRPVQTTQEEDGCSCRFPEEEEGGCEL

B1: BCY12236 (peptide)
peptide 1: AXDCXKVNPLCLHPDWXC
peptide 2: CXPEKPYCFADPYXCA
modifications: Ac-C[tBuAla]PE[D-Lys]PYCFADPY[Nle]CA; Cys residues bonded to TATA scaffold; [Ac]A[HArg]DC[HyP]K(PYA)VNPLCLHP[dD]W[HArg]C; Cys residues bonded to TATA scaffold
As for B1, in assay [1], the “Fold improvement in EC50 over BCY9173 on same plate” value amounted to 1.4 fold and the “Fold improvement in Emax over BCY9173 on same plate” value was determined as 0.8 fold.

B2: BCY12237 (peptide)
peptide 1: AXDCXLVNPLCKHPDWXC
peptide 2: CXPEKPYCFADPYXCA
modifications: Ac-C[tBuAla]PE[D-Lys]PYCFADPY[Nle]CA; Cys residues bonded to TATA scaffold; [Ac]A[HArg]DC[HyP]LVNPLCK(PYA)HP[dD]W[HArg]C; Cys residues bonded to TATA scaffold
In the case of B2, in assay [1], the “Fold improvement in EC50 over BCY9173 on same plate” value was found to be 1 fold and the “Fold improvement in Emax over BCY9173 on same plate” value is 0.8 fold.

B3: BCY12375 (peptide)
peptide 1: SDKCSAGWLTMCQKLHLCPSH
peptide 2: CXEEKPYCFADPYXCX
modifications: [Ac]C[tBuAla]EE(dK)PYCFADPY[Nle]C[Dap(PYA)]; carries Palmitic acid-PEG10 (Example 1); Cys residues bonded to TATA scaffold; Ac-SDKCSAGWLTMCQK[PYA]LHLCPSH; Cys residues bonded to TATA scaffold
The term EC50 denotes the midpoint of the concentration-response curve. Low values mean an effect from little substance, high ones a need for much substance. Regarding B3, in assay [2], a half-maximal response (EC50) required 22 nM and the “Fold Induction over background” value came to 3 fold over background.

B4: BCY12242 (peptide)
peptide 1: DXCSAGWLTMCQKLKLCPSH
peptide 2: CXPEXPYCFADPYXCA
modifications: Ac-C[tBuAla]PE[D-Lys(PYA)]PYCFADPY[Nle]CA; Cys residues bonded to TATA scaffold; [Ac]D[HArg]CSAGWLTMCQK(Ac)LKLCPSH; Cys residues bonded to TATA scaffold
Take B4: in assay [2], the “EC50” value was found to be 20 nM and the “Fold Induction over background” value is 13 fold over background.

B5: BCY12229 (peptide)
peptide 1: DXCSAGWLTMCQKLHLCPSH
peptide 2: CXPEXPYCFADPYXCA
modifications: Ac-C[tBuAla]PE[D-Lys(PYA)]PYCFADPY[Nle]CA; Cys residues bonded to TATA scaffold; [Ac]D[HArg]CSAGWLTMCQKLHLCPSH; Cys residues bonded to TATA scaffold
With B5, in assay [2], the response was half-maximal at 18 nM (EC50) and the “Fold Induction over background” value was 8 fold over background.

B6: BCY12230 (peptide)
peptide 1: DXCSKGWLTMCQKLHLCPSH
peptide 2: CXPEXPYCFADPYXCA
modifications: Ac-C[tBuAla]PE[D-Lys(PYA)]PYCFADPY[Nle]CA; Cys residues bonded to TATA scaffold; [Ac]D[HArg]CSKGWLTMCQK(Ac)LHLCPSH; Cys residues bonded to TATA scaffold
Take B6: in assay [2], the “EC50” value is 46 nM and the “Fold Induction over background” value stood at 10 fold over background.
